Assay results as given in patent publication US20240228562A1, “NOVEL LIPOCALIN MUTEINS SPECIFIC FOR CONNECTIVE TISSUE GROWTH FACTOR (CTGF)” (PIERIS PHARMACEUTICALS GMBH, priority 2021, published 2024).

Assays:
[1] = Thermal stability assessment by nanoDSC; format: physicochemical; conditions: 1 mg/mL in PBS, scan 25-100° C. at 1° C./min
How it was run: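 CTGF-specific lipocalin muteins at 1 mg/mL in PBS scanned from 25 to 100° C at 1° C/min by capillary nano-DSC. Where several transitions occur, the Tm of the major unfolding event is reported, along with onset temperature. Some muteins were expressed in E. coli, others in CHO cells.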

human CTGF [2] = molecular target: T1, human CTGF (Homo sapiens, UniProt P29279); assay: SPR binding kinetics and affinity, human CTGF; conditions: 25° C., 1:1 binding model
T1 construct: purchased Creative Biomart
T1 sequence (P29279 with tags, fused parts or gaps H83D): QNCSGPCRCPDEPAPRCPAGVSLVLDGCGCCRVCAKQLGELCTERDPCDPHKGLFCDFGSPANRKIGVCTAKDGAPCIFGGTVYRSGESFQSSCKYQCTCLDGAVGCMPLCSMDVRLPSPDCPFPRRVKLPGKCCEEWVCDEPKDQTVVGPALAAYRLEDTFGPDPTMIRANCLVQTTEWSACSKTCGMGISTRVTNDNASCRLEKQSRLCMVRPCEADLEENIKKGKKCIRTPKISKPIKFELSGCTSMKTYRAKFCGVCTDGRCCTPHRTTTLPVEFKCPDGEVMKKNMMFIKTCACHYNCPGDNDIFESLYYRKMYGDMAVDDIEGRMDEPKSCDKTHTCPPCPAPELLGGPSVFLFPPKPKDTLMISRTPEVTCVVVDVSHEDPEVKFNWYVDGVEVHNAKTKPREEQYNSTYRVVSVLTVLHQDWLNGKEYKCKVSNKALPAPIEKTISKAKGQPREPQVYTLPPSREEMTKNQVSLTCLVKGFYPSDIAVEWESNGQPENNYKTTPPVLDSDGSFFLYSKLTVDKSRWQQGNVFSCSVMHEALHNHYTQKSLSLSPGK
How it was run: (§1)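 Biacore SPR at 25 °C; CTGF either Fc-captured via anti-human IgG (HBS-EP+) or amine-coupled to CM5 (300–1100 RU). Muteins injected 180 s contact, 900–3600 s dissociation, 30 μL/min.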

human CTGF [3] = molecular target: T2, human CTGF (Homo sapiens, UniProt P29279, H83D); assay: SPR binding kinetics and affinity, human CTGF; conditions: 25° C., 1:1 binding model
T2 construct: purchased Creative Biomart
T2 sequence (P29279 with tags, fused parts or gaps H83D): as above
How it was run: as §1

cynomolgus CTGF = assay: SPR binding kinetics and affinity, cynomolgus CTGF; conditions: 25° C., 1:1 binding model
cynomolgus CTGF, sequence (as listed by the source): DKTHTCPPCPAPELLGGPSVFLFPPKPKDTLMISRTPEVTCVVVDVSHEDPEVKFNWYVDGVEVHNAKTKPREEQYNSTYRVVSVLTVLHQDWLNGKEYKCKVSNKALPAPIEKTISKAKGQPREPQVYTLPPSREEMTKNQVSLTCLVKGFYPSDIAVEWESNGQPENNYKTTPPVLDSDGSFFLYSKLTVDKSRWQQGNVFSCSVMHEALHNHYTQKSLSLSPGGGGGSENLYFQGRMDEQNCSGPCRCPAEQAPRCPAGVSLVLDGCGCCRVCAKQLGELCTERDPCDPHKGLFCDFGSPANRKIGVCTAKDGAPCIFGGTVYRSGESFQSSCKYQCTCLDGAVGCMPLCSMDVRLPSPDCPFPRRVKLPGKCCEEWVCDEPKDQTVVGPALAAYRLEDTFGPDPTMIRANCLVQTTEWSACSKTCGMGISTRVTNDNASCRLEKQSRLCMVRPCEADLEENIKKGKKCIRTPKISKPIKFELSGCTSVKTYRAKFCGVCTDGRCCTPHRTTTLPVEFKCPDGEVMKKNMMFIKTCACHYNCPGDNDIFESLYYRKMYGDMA
Experimental: (§2) Surface plasmon resonance (SPR) was used to measure binding kinetics and affinity of the representative lipocalin muteins disclosed herein.
(§3) The binding of exemplary lipocalin muteins to human (Creative Biomart), cynomolgus, rat (R&D Systems) and mouse CTGF (Abbexa) was determined by SPR using a Biacore instrument (Cytiva, formerly GE Healthcare). Some targets were fused to a human IgG1 Fc tag, and captured via the anti-human IgG antibody kit, others were directly immobilized.
(§4) For some measurements, human CTGF with a human IgG1 Fc Tag or rat or murine CTGF without a tag were directly immobilized to a CM5 Chip. The carboxyl groups on the chip were activated using 1-ethyl-3-(3-dimethylaminopropyl)-carbodiimide (EDC) and N-hydroxysuccinimide (NHS). Subsequently, the targets at a concentration of 3-5 μg/mL in 10 mM sodium acetate (pH) 4.5 were applied at a flow rate of 10 μL/min until an immobilization level of 300-1100 resonance units was achieved. Residual non-reacted NHS-esters were blocked by passing a solution of 1 M ethanolamine across the surface. The reference channel was activated/deactivated. For the capture setting, targets with an IgG Fc Tag at 0.25-2.5 μg/mL in HBS-EP+ buffer were captured by the anti-human IgG-Fc antibody at the chip surface for 180 s at a flow rate of 10 μL/min.
(§5) The binding assay was carried out with a contact time of 180 s, a dissociation time of 900-3600 s and a flow rate of 30 μL/min. All measurements were performed at 25° C. […] For the directly immobilized targets, the same regeneration conditions were used. Prior to the protein measurements, three startup cycles were performed for conditioning purposes. Data were evaluated with Biacore Evaluation software. Double referencing was used and the 1:1 binding model was used to fit the raw data.
(§6) The values determined for kon, koff and the resulting equilibrium dissociation constant (KD) for exemplary lipocalin muteins are summarized in Table 4.

Murine CTGF = molecular target: T3, Murine CTGF (Mus musculus, UniProt P29268); assay: SPR binding kinetics and affinity, murine CTGF; conditions: 25° C., 1:1 binding model
T3 construct: purchased Abbexa
T3 sequence (P29268 26-348): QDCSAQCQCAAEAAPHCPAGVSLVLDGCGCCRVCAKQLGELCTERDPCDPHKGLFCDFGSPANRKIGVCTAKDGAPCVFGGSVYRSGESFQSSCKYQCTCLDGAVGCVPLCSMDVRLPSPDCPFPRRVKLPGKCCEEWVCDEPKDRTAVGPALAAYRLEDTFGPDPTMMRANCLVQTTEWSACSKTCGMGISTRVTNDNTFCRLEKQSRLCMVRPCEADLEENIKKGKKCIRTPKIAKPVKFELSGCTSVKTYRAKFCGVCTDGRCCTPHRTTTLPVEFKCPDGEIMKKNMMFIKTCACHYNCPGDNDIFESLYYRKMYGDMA
How it was run: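 Targets either amine-coupled to CM5 chip (300–1100 RU; Fc-tagged human, untagged rat/murine) or Fc-captured via anti-human IgG; muteins injected 180 s contact, 900–3600 s dissociation, 30 μL/min, 25° C. Double-referenced sensorgrams fit to 1:1 model giving kon, koff and KD.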

Rat CTGF = molecular target: T4, Rat CTGF (Rattus norvegicus, UniProt Q9R1E9); assay: SPR binding kinetics and affinity, rat CTGF; conditions: 25° C., 1:1 binding model
T4 construct: purchased R&D Systems
T4 sequence (Q9R1E9 25-347): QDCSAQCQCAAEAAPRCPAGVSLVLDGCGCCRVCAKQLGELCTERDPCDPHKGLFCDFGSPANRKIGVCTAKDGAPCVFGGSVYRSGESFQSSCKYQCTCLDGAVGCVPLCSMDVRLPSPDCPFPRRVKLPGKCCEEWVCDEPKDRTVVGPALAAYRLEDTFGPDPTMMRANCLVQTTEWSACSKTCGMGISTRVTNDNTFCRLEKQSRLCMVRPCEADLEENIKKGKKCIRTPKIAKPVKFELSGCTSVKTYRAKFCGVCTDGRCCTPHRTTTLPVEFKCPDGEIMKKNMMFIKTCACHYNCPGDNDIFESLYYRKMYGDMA
Experimental: as §2, §3, §4, §5, §6

[4] = system: bleomycin-induced lung fibrosis; assay: Bleomycin mouse model of lung fibrosis; format: in vivo; conditions: day 14 after bleomycin
Experimental: The anti-fibrotic activity of lipocalin muteins upon local delivery to the lung was evaluated in vivo using a mouse model of bleomycin-induced lung fibrosis. Bleomycin is a DNA damaging agent, also used in cancer therapy, which induces a severe damage of the lung epithelium upon delivery to the lungs of rodents. The injury causes a strong inflammatory response in the lungs which in turn triggers fibrotic response. The peak of fibrotic remodeling, usually observed between day 14 and 21 after bleomycin challenge, is characterized by an excessive deposition of extracellular matrix and destruction of alveolar lung structures. Here, approximately 9 weeks old, male C57BL/6N mice were challenged with bleomycin at a dose of 1 mg/kg or saline as a control via the intranasal route. Animals were treated daily with lipocalin muteins at a dose of 5 mg/kg or PBS as a vehicle control via local delivery to the lungs from day 0 to day 13 after bleomycin challenge. […] Animals were sacrificed at day 14 after bleomycin challenge and level of lung fibrosis was analyzed in formalin fixed, paraffin embedded lung tissues by histopathological evaluation using the Ashcroft score (Matsuse modification) and quantitative digital analysis of IHC detected Collagen1a1 protein deposition.
For determination of the Ashcroft score lung tissue slides were stained according to the Crossman's Trichrome method (Gray, Peter (1954) The Microtomist's Formulary and Guide. Blakiston, New York, 1954). The whole pulmonary area subjected for histopathological analysis was evaluated at ten low magnification fields and total score for each animal was calculated as a mean (Ashcroft et al., Journal of clinical pathology 41.4 (1988): 467-470; Matsuse, T., et al. European Respiratory Journal 13.1 (1999): 71-77.). […]
Collagen1a1 (Col1a1) deposition was analyzed by immunohistochemistry as a second measure for fibrotic lung remodeling. […] Stained tissue slides were evaluated for Col1a1 deposition by digital image analysis using the morphometry protocol (CaloPix software, TRIBVN). […]

[5] = mutein 5 mg/kg daily to lung, antibody 10 mg/kg every other day intravenous

human CTGF koff (human CTGF [2]): 1.41e-05 s⁻¹ | human CTGF kon (human CTGF [3]): 157000 M⁻¹ s⁻¹ | cynomolgus CTGF koff (cynomolgus CTGF): 2.63e-05 s⁻¹ | cynomolgus CTGF kon (cynomolgus CTGF): 195000 M⁻¹ s⁻¹ | Murine CTGF koff (Murine CTGF): 1.16e-05 s⁻¹ | Murine CTGF kon (Murine CTGF): 299000 M⁻¹ s⁻¹ | Rat CTGF koff (Rat CTGF): 3.51e-05 s⁻¹ | Rat CTGF kon (Rat CTGF): 138000 M⁻¹ s⁻¹
B1: SEQ ID NO: 24: optimized CTGF-binding hNGAL lipocalin mutein (protein)
chain: QDSTSDLIPAPPLSKVPLQQNFQDNQFQGKWYVVGVAGNAILRTDKQPAKMFATIYELKEDKSYDVTSVRFEAKSCKYTIKTFVPGSQPGEFTAGNIKSAPGQTSTLVRVVSTNYNQHAMVFFKHVSQNREIFVITLYGRTKELTSELKENFIRFSKSLGLPENHIVFPVPIDQCIDG
modifications: lipocalin mutein
ONSET MELTING [1]: 58 °C | TM ([1]; major transition): 72 °C | Reduction of Ashcroft score vs mean of vehicle-treated animals ([4]; mutein 5 mg/kg daily local lung delivery day 0-13): 14.1% | Effect on Ashcroft score [4, 5]: significantly decreased the Ashcroft score | Reduction of Col1a1 positive lung surface area vs mean of vehicle controls [4, 5]: 25.2%
